The record followed here is the Immune Epitope Database (IEDB).

The target in one test is HLA-B*57:01. Nature of the test: IEDB peptide-MHC binding, purified MHC/direct/fluorescence; filed as Kd, often an IC50 or EC50 that approximates it; ≥ and ≤ were set here for values at or beyond the usual limits of such assays.
In a further test the target is HLA-A*24:03. The description is as above. The settings on record: source organism: Camelpox virus M-96.
The next test concerns the target HLA-A*31:01. The test is described as above.
The next test has as its target HLA-A*26:02. Described as above.
For the next test, the target named is HLA-B*15:01. The test is described as above.
Another test concerns the target HLA-A*69:01. The test is described as above.
Another test addresses HLA-A*68:02. The test is described as above.
The next test deals with HLA-A*11:01. The test is described as above.
The target in another test is HLA-A*01:01. The description is as above.
For a further test, the target named is HLA-B*15:09. Described as above.
A further test deals with HLA-B*08:03. The test is described as above. Particulars: source organism: Variola virus.
The target in another test is HLA-C*07:02. The test is described as above. The settings on record: source organism: Vaccinia virus WR.
For another test, the target named is HLA-B*07:02. The test is described as above.
The target of another test is HLA-B*58:01. The description is as above.
For another test, the target named is HLA-A*26:03. The test is described as above.
Test [1] addresses HLA-B*15:17. The test can be described thus: IEDB peptide-MHC binding, purified MHC/competitive/fluorescence; filed as Kd, often an IC50 or EC50 that approximates it; ≥ and ≤ were set here for values at or beyond the usual limits of such assays. Particulars: source organism: Vaccinia virus WR.
In test [2] the target is HLA-B*18:01. The test is described as above. Particulars: source organism: Vaccinia virus WR.
Test [3] has as its target HLA-A*02:01. The description is as above. The settings on record: source organism: Vaccinia virus WR.
The next test deals with HLA-B*46:01. The test can be described thus: IEDB peptide-MHC binding, purified MHC/direct/fluorescence; filed as Kd, often an IC50 or EC50 that approximates it; ≥ and ≤ were set here for values at or beyond the usual limits of such assays.
A further test deals with HLA-B*35:01. The description is as above. Particulars: source organism: Salmonella enterica subsp. enterica serovar Typhimurium.
In another test the target is HLA-B*40:01. Described as above.
Another test concerns the target HLA-B*27:05. Described as above.
A further test deals with HLA-B*44:02. The test is described as above. Particulars: source organism: Salmonella enterica.
The next test addresses HLA-A*03:01. The test is described as above.
The target in the next test is HLA-B*08:01. The description is as above.
The target in a further test is HLA-B*15:02. The description is as above. The settings on record: source organism: Salmonella enterica subsp. enterica serovar Typhimurium str. LT2.
Another test has as its target HLA-A*26:01. Described as above. Particulars: source organism: Salmonella enterica.
Test [4] addresses HLA-A*02:01. Described as above.
Test [5] addresses HLA-B*15:17. The description is as above. Particulars: source organism: Influenza A virus (A/quail/Hong Kong/FY298/00(H9N2)).
Test [6] deals with HLA-B*18:01. The description is as above. Particulars: source organism: Influenza A virus (A/quail/Hong Kong/FY298/00(H9N2)).
The target in the next test is HLA-B*39:01. The description is as above. Particulars: source organism: Influenza A virus (A/quail/Hong Kong/FY298/00(H9N2)).
The next test has as its target HLA-B*48:01. Described as above. The settings on record: source organism: Influenza A virus (A/quail/Hong Kong/FY298/00(H9N2)).
In a further test the target is HLA-B*08:02. Described as above. The settings on record: source organism: Influenza B virus (B/Beijing/184/93).
A further test deals with HLA-C*08:02. The test is described as above. The settings on record: source organism: Yersinia pestis Nepal516.
The target in a further test is HLA-C*06:02. Described as above. The settings on record: source organism: Yersinia pestis Nepal516.
For the next test, the target named is HLA-B*45:06. The test can be described thus: IEDB peptide-MHC binding, purified MHC/competitive/fluorescence; filed as Kd, often an IC50 or EC50 that approximates it; ≥ and ≤ were set here for values at or beyond the usual limits of such assays. The settings on record: source organism: Yersinia pestis Nepal516.
In a further test the target is HLA-B*15:42. The test is described as above. Particulars: source organism: Yersinia pestis Nepal516.
For the next test, the target named is HLA-A*03:19. The test is described as above. The settings on record: source organism: Yersinia pestis Nepal516.
A further test concerns the target HLA-B*83:01. The description is as above. Particulars: source organism: Yersinia pestis Nepal516.
Another test has as its target HLA-A*68:23. The test is described as above. The settings on record: source organism: Yersinia pestis Nepal516.
The mark [7] stands for this setting: source organism: Camelpox virus M-96.
[8] abbreviates: source organism: Salmonella enterica.
Where [9] appears, read: source organism: Salmonella enterica subsp. enterica serovar Typhimurium.
Where [10] appears, read: source organism: Influenza A virus (A/quail/Hong Kong/FY298/00(H9N2)).
The mark [11] stands for this setting: source organism: Influenza B virus (B/Beijing/184/93).
Setting [12] is: source organism: Yersinia pestis.

In the case of FYLFTFTIY, the Kd was no less than 20 µM with HLA-B*57:01 (setting [7]); 1.25 µM in the test with HLA-A*24:03; no less than 20 µM with HLA-A*31:01 (setting [7]); no less than 20 µM with HLA-A*26:02 (source organism: Variola virus); no less than 20 µM with HLA-B*15:01 (setting [7]); no less than 20 µM in the test with HLA-A*69:01 (setting [7]). Moreover, the Kd with HLA-A*68:02 (setting [7]) is no less than 20 µM; with HLA-A*11:01 (setting [7]) it was no less than 20 µM; with HLA-A*01:01 (setting [7]) it was no less than 20 µM; with HLA-B*15:09 (source organism: Variola virus), no less than 20 µM; with HLA-B*08:03, no less than 20 µM; with HLA-C*07:02, 2 µM. In addition, the Kd with HLA-B*07:02 (setting [7]) was no less than 20 µM; in the test with HLA-B*58:01 (setting [7]), no less than 20 µM; with HLA-A*26:03 (source organism: Variola virus), no less than 20 µM; with HLA-B*15:17 [1] it was no less than 20 µM; with HLA-B*18:01 [2], 3.89 µM; with HLA-A*02:01 [3], no less than 20 µM.

For the sequence MQQSGDEAF, the Kd is no less than 20 µM in the test with HLA-A*31:01 (setting [8]); no less than 20 µM with HLA-B*46:01 (setting [8]); 0.2 µM in the test with HLA-B*15:01 (setting [9]); no less than 20 µM with HLA-A*69:01 (setting [8]); 0.147 µM with HLA-B*35:01; 1.01 µM with HLA-B*40:01 (setting [9]). Besides, the Kd with HLA-B*27:05 (setting [8]), with HLA-B*44:02, with HLA-A*11:01 (setting [8]), with HLA-A*03:01 (setting [8]), with HLA-A*01:01 (setting [8]) and with HLA-B*07:02 (setting [8]) was no less than 20 µM throughout. Also, the dissociation constant Kd in the test with HLA-B*08:01 (setting [8]) is no less than 20 µM; with HLA-B*15:02, 0.032 µM; with HLA-A*26:01, no less than 20 µM; in the test with HLA-B*58:01 (setting [8]) it was no less than 20 µM; in the test with HLA-A*02:01 [4] (setting [8]), no less than 20 µM.

On to TKDAERGKL, for which the dissociation constant (Kd) with HLA-B*57:01 (setting [10]), in the test with HLA-B*46:01 (setting [10]), in the test with HLA-A*26:02 (setting [11]), with HLA-B*15:01 (setting [10]), in the test with HLA-A*69:01 (setting [10]) and with HLA-B*15:17 [5] was no less than 20 µM throughout. Moreover, the dissociation constant (Kd) with HLA-A*68:02 (setting [10]) is no less than 20 µM; with HLA-B*40:01 (setting [10]), no less than 20 µM; in the test with HLA-B*27:05 (setting [10]), no less than 20 µM; in the test with HLA-A*03:01 (setting [10]) it was no less than 20 µM; with HLA-A*01:01 (setting [10]), no less than 20 µM; in the test with HLA-B*15:09 (setting [11]), no less than 10 µM. The Kd with HLA-B*18:01 [6], with HLA-B*39:01, in the test with HLA-B*48:01, with HLA-B*07:02 (setting [10]), with HLA-B*08:01 (setting [11]) and with HLA-B*08:02 was no less than 20 µM in each case. The dissociation constant Kd in the test with HLA-B*58:01 (setting [10]), with HLA-A*26:03 (setting [11]) and in the test with HLA-A*02:01 [4] (setting [10]) was no less than 20 µM in each case.

In the case of TVYPKTHYV, the Kd in the test with HLA-A*31:01 (setting [12]) is 0.178 µM; in the test with HLA-B*15:01 (setting [12]) it was 2.01 µM; in the test with HLA-A*69:01 (setting [12]) it was 0.0114 µM; with HLA-A*11:01 (setting [12]), 0.048 µM; with HLA-A*03:01 (setting [12]) it was 4.18 µM; with HLA-C*08:02 it was no less than 20 µM. In addition, the Kd with HLA-C*06:02 is 0.035 µM; with HLA-B*58:01 (setting [12]), 3.63 µM; in the test with HLA-A*02:01 [4] (setting [12]), 0.0415 µM; with HLA-B*45:06 it was no less than 5 µM; with HLA-B*15:42 it was no less than 5 µM; with HLA-A*03:19 it was 0.201 µM. For the same sequence, the figures for the Kd with HLA-B*83:01 and with HLA-A*68:23 were no less than 5 µM and no more than 0.0001 µM, respectively.
